Reference: article PMC2840211
Changes are numbered by the printed parent chain.

B1: ectodomain of RAE-1γ PLWY-deletion mutant (domain or fragment)
chain: GLDDAHSLRCNLTIKAPTPADEAKCLVDEILILHLSNINKTMTSGDPGETANATEVGECLTQPVNDLCQKLRDKVSNTKVDTHKTNGYPHLQVTMIYPQSQGQTPSATWEFNISDSYFFTFYTENMSWRSANDESGVIMNKWNDDGDLVQRLKYFIPECRQKIDEFLKQSKEKP
B2: ectodomain of RAE-1γ (domain or fragment)
chain: GLDDAHSLRCNLTIKAPTPADPLWYEAKCLVDEILILHLSNINKTMTSGDPGETANATEVGECLTQPVNDLCQKLRDKVSNTKVDTHKTNGYPHLQVTMIYPQSQGQTPSATWEFNISDSYFFTFYTENMSWRSANDESGVIMNKWNDDGDLVQRLKYFIPECRQKIDEFLKQSKEKP
B3: ectodomain of RAE-1β (domain or fragment)
chain: GLDDAHSLRCNLTIKDPTPADPLWYEAKCFVGEILILHLSNINKTMTSGDPGETANATEVKKCLTQPLKNLCQKLRNKVSNTKVDTHKTNGYPHLQVTMIYPQSQGRTPSATWEFNISDSYFFTFYTENMSWRSANDESGVIMNKWKDDGEFVKQLKFLIHECSQKMDEFLKQSKEKP
B4: ectodomain of RAE-1β PLWY-deletion mutant (domain or fragment)
chain: GLDDAHSLRCNLTIKDPTPADEAKCFVGEILILHLSNINKTMTSGDPGETANATEVKKCLTQPLKNLCQKLRNKVSNTKVDTHKTNGYPHLQVTMIYPQSQGRTPSATWEFNISDSYFFTFYTENMSWRSANDESGVIMNKWKDDGEFVKQLKFLIHECSQKMDEFLKQSKEKP
B5: ectodomain of RAE-1δ (domain or fragment)
chain: B4 chain with D16A, A23V, K57G, K58E, N66D, N73D, R103Q, N125I, E158G

Assays:
[1] = target: RAE-1δ (Mus musculus) (UniProt Q9JI58); details: cited from earlier work
Chain of UniProt Q9JI58 (Q9JI58 29-225, stated change not applied): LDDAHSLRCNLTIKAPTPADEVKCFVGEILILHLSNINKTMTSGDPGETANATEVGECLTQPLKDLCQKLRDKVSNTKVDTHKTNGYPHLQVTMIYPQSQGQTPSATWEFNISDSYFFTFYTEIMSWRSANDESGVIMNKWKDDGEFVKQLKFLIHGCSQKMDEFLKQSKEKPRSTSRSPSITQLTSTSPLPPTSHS

[2] = target: ectodomain of m152 (mouse cytomegalovirus m152/gp40 immunoevasin) (mouse cytomegalovirus (MCMV)); test: AUC
[3] = target: ectodomain of m152 (mouse cytomegalovirus m152/gp40 immunoevasin) (mouse cytomegalovirus (MCMV)); test: AUC; remark: listed apart in the source
[4] = target: ectodomain of m152 (mouse cytomegalovirus m152/gp40 immunoevasin) (mouse cytomegalovirus (MCMV)); test: ITC

| Molecule | Kd [2] | other results |
| --- | --- | --- |
| NKG2D (from UniProt O54709) |  | Kd [1]: 726 nM |
| B1 | 1400 nM |  |
| B2 | 1000 nM |  |
| B3 | 4100 nM | koff [2]: > 0.001 s⁻¹; stoichiometry N [2]: 1; Kd [3]: 1700 nM; Kd [4]: 2100 nM |
| B4 | 31000 nM |  |
| B5 | 34000 nM |  |
